What was measured:
[1] = molecular target: T1, CCR8-NT.MBP (CCR8 N-terminus peptide aa 1-35 fused with maltose binding protein); test: ForteBio Octet, antibody captured on AHC biosensors, CCR8-NT.MBP as analyte
[2] = molecular target: T2, Human CCR8 (C-C chemokine receptor type 8) expressed on CHO-S cells (human, UniProt P51685 1-355); test: flow cytometry on CHO cells expressing CCR8, EC50 column
T2 construct: also called huCCR8; human CCR8-expressing CHO-S cells
Description: (§1) CCR8 binding was determined using flow cytometry according to the same methods used in Example 4, Briefly, antibodies were screened for specific binding to human CCR8 by flow cytometry using human CCR8-overexpressing and parental CHO—S cell line. Antibodies specifically binding to human CCR8 were also tested for binding to CCR4 by flow cytometry.

[3] = molecular target: T1, CCR8-NT.MBP (CCR8 N-terminus peptide aa …); test: ForteBio Octet, antibody captured on AHC biosensors
[4] = molecular target: T2, Human CCR8 (C-C chemokine receptor type …); test: flow cytometry (PE-A), human CCR8-expressing CHO-S cells against parental CHO-S cells; antibody concentration not given
[5] = molecular target: T3, Human CCR4 expressed on CHO-S cells (human, UniProt P51679 1-360); test: flow cytometry (PE-A), human CCR4-expressing CHO-S cells against parental CHO-S cells; antibody concentration not given
T3 construct: whole, on cells; also called CCR4-expressing CHO-S cells
T3 sequence (looked up): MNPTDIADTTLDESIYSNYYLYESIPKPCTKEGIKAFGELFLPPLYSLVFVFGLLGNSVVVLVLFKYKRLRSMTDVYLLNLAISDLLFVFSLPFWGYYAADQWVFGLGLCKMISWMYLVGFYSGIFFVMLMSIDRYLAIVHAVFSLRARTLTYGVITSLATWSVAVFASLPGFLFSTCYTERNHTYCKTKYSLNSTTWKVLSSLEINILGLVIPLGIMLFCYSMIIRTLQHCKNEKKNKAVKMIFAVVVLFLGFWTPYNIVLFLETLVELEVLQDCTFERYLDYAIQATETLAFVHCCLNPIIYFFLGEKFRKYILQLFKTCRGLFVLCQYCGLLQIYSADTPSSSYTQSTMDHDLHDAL

[6] = molecular target: T2, Human CCR8 (C-C chemokine receptor type …); test: KinExA, on-cell, human CCR8-expressing CHO-S cells
Description: (§2) Samples were gently rocked for 2.5 hours at 37° C. to achieve equilibrium.
(§3) To determine the rate of association (kₒₙ), the same immobilized biotinylated goat anti-human IgG-PMMA column was used as the capture reagent for kinetic experiments.
(§4) Data analysis was performed using KinExA Pro software at Sapidyne Instruments Inc to generate Kd and kₒₙ, The rate of dissociation (koff) was calculated based on the equation below.

[7] = molecular target: T2, Human CCR8 (C-C chemokine receptor type …); test: cell-based or functional assay
[8] = molecular target: T2, Human CCR8 (C-C chemokine receptor type …); test: flow cytometry epitope binning, tandem format, human CCR8-overexpressing cells; competitor 19-O07
Description: (§5) A subset of antibodies against human CCR8 were epitope binned using flow cytometry method in tandem format. Briefly, one set of antibodies was biotinylated. Human CCR8-overexpressing cells were incubated at 4° C., with the non-biotinylated antibodies at 10 μg/mL for 1 hour, then without washing the biotinylated antibodies were added at 10 μg/mL. After a further 1-hour incubation, cells were washed three times and then stained with streptavidin-phycoerythrin (PE-strep) secondary antibody for 30 minutes. Binding competition was determined by detecting PE by flow cytometry. The response values were normalized as the % of the maximum binding of the individual antibody.

[9] = molecular target: T4, Human CCR8 on human CCR8-overexpression lipoparticles (human, UniProt P51685 1-355); test: sequential format ELISA on human CCR8-overexpression lipoparticles; competitor 6-B09
T4 sequence (P51685 whole entry): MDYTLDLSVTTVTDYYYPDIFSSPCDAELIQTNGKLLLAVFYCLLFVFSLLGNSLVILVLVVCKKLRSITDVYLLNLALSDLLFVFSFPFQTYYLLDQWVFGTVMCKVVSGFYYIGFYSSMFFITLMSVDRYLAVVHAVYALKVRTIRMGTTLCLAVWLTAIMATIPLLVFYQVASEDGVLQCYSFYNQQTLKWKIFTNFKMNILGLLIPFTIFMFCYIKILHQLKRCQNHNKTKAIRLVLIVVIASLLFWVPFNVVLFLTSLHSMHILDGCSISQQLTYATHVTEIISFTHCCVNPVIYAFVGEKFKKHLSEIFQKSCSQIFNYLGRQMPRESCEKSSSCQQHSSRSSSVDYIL

[10] = molecular target: T2, Human CCR8 (C-C chemokine receptor type …); test: cell-based or functional assay; remark: listed apart in the source
[11] = molecular target: T2, Human CCR8 (C-C chemokine receptor type …); test: flow cytometry epitope binning, tandem format, human CCR8-overexpressing cells; competitor 6-B09
Description: as §5

[12] = molecular target: T2, Human CCR8 (C-C chemokine receptor type …); test: flow cytometry epitope binning, tandem format, human CCR8-overexpressing cells; competitor 1-K16
Description: as §5

[13] = molecular target: T4, Human CCR8 on human CCR8-overexpression …; test: sequential format ELISA on human CCR8-overexpression lipoparticles; competitor 1-K16
[14] = molecular target: T3, Human CCR4 expressed on CHO-S cells; test: flow cytometry
[15] = molecular target: T2, Human CCR8 (C-C chemokine receptor type …); test: KinExA, on-cell, human CCR8-expressing CHO-S cells; calculated from Kd and kon
Description: as §2, §3, §4

[16] = molecular target: T4, Human CCR8 on human CCR8-overexpression …; test: sequential format ELISA on human CCR8-overexpression lipoparticles; competitor 7-B16
[17] = molecular target: T2, Human CCR8 (C-C chemokine receptor type …); test: flow cytometry, human CCR8-overexpressing against parental CHO-S cells
Description: The first category of variant (single substitution mutation in the CDR H3) included variants in which each amino acid residue of the heavy chain CDR 3 (i.e., , CDR H3) was iteratively substituted with an alanine residue.
as §1

[18] = molecular target: T2, Human CCR8 (C-C chemokine receptor type …); test: flow cytometry epitope binning, tandem format, human CCR8-overexpressing cells; competitor 7-B16
Description: as §5

[19] = molecular target: T4, Human CCR8 on human CCR8-overexpression …; test: sequential format ELISA on human CCR8-overexpression lipoparticles; competitor 1-K17
[20] = molecular target: T2, Human CCR8 (C-C chemokine receptor type …); test: cell-based or functional assay; remark: listed apart in the source
[21] = molecular target: T4, Human CCR8 on human CCR8-overexpression …; test: sequential format ELISA on human CCR8-overexpression lipoparticles; competitor 19-O07
[22] = molecular target: T2, Human CCR8 (C-C chemokine receptor type …); test: flow cytometry epitope binning, tandem format, human CCR8-overexpressing cells; competitor 1-K17
Description: as §5

T2 sequence (P51685 whole entry): as above

Binder | Octet Response (nm) [1] | binding result [2] | binding result [3] | Kd [6] | kon [6] | IC50, antagonist activity in DiscoverX PathHunter beta-arrestin assay with 13.7 nM human CCL1 [7] | % of the maximum binding [8] | ELISA epitope binning signal [9] | % of the maximum binding [11] | % of the maximum binding [12] | ELISA epitope binning signal [13] | binding result [14] | koff [15] | ELISA epitope binning signal [16] | % of the maximum binding [18] | ELISA epitope binning signal [19] | EC50 of ADCC function (Promega ADCC reporter bioassay) [20] | ELISA epitope binning signal [21] | % of the maximum binding [22] | also measured
7B16-H3.001 (CDR H3 swapped mutant of 7-B16) (antibody, V domains shown, also called CDR swapped variant H3) VH: EVQLVESGGGLVQPKGSLKLSCAASGFTFNTYAMNWVRQAPGKGLEWVARIRSKSNNYATYYADSVKDRFTISRDDSQSMLYLQMNNLKTEDTAMYYCTRYYYYYGMDVWGAGTTVTVSS VL: DIVMTQAEPSVPVTPGESISISCRSSKSLLHSNGNTYLYWFLQRPGQSPQLLIYRMSNLASGVPDRFSGSGSGTAFTLRISRVEAEDVGVYYCMQHLEYPFTFGGGTKLEIKR | 0.0093 nm | no binding | no binding (tested: 300 nM CCR8-NT.MBP) |  |  |  |  |  |  |  |  |  |  |  |  |  |  |  |  | 
7-B16 (mouse hybridoma antibody) (antibody, mouse IgG1, kappa) heavy: EVQLVESGGGLVQPKGSLKLSCAASGFTFNTYAMNWVRQAPGKGLEWVARIRSKSNNYATYYADSVKDRFTISRDDSQSMLYLQMNNLKTEDTAMYYCVRGLLRYRFFDVWGAGTTVTVSSAKTTPPSVYPLAPGSAAQTNSMVTLGCLVKGYFPEPVTVTWNSGSLSSGVHTFPAVLESDLYTLSSSVTVPSSPRPSETVTCNVAHPASSTKVDKKIVPRDCGCKPCICTVPEVSSVFIFPPKPKDVLTITLTPKVTCVVVDISKDDPEVQFSWFVDDVEVHTAQTQPREEQFNSTFRSVSELPIMHQDWLNGKEFKCRVNSAAFPAPIEKTISKTKGRPKAPQVYTIPPPKEQMAKDKVSLTCMITDFFPEDITVEWQWNGQPAENYKNTQPIMNTNGSYFVYSKLNVQKSNWEAGNTFTCSVLHEGLHNHHTEKSLSHSPG light: DIVMTQAEPSVPVTPGESISISCRSSKSLLHSNGNTYLYWFLQRPGQSPQLLIYRMSNLASGVPDRFSGSGSGTAFTLRISRVEAEDVGVYYCMQHLEYPFTFGGGTKLEIKRADAAPTVSIFPPSSEQLTSGGASVVCFLNNFYPKDINVKWKIDGSERQNGVLNSWTDQDSKDSTYSMSSTLTLTKDEYERHNSYTCEATHKTSTSPIVKSFNRNEC |  |  |  |  |  |  |  |  |  |  |  |  |  |  |  |  |  |  |  | binding result [4]: binds; binding result [5]: no binding
7-B16 chimera (human IgG1) (antibody, also called 7-B16.hG1 Chimera; Wild type 7-B16) heavy: not shown light: DIVMTQAEPSVPVTPGESISISCRSSKSLLHSNGNTYLYWFLQRPGQSPQLLIYRMSNLASGVPDRFSGSGSGTAFTLRISRVEAEDVGVYYCMQHLEYPFTFGGGTKLEIKRTVAAPSVFIFPPSDEQLKSGTASVVCLLNNFYPREAKVQWKVDNALQSGNSQESVTEQDSKDSTYSLSSTLTLSKADYEKHKVYACEVTHQGLSSPVTKSFNRGEC |  |  |  | 0.22 nM | 6.08e+06 M⁻¹ s⁻¹ | 0.09 µg/mL | 148% | 1.04 | 175% | 14% | 0.101 | no binding | 0.00134 s⁻¹ | 0.655 | 41% | 0.771 | 0.00691 µg/mL | 0.437 | 18% | ADCC (Fold Induction) [10]: 23.3 fold; Flow (fold over parent) [17]: 10 fold
7B16-L1.001 (CDR L1 swapped mutant of 7-B16) (antibody, V domains shown, also called CDR swapped variant L1) VH: EVQLVESGGGLVQPKGSLKLSCAASGFTFNTYAMNWVRQAPGKGLEWVARIRSKSNNYATYYADSVKDRFTISRDDSQSMLYLQMNNLKTEDTAMYYCVRGLLRYRFFDVWGAGTTVTVSS VL: DIVMTQAEPSVPVTPGESISISCRSSQSLLHSNGYNYLDWFLQRPGQSPQLLIYRMSNLASGVPDRFSGSGSGTAFTLRISRVEAEDVGVYYCMQHLEYPFTFGGGTKLEIKR | 0.0039 nm | no binding | no binding (tested: 300 nM CCR8-NT.MBP) |  |  |  |  |  |  |  |  |  |  |  |  |  |  |  |  | 
1-K17 chimera (human IgG1) (antibody, also called 1-K17.hG1 Chimera) heavy: not shown light: DVVMTQTPLSLPVSLGDQASISCRSSQSLVHSNGNTYLYWYLQKPGQSPKLLIYKVSNRFSGVPDRFSGSGSGTDFTLKISRVEAEDLGVYFCSQSTHVPYTFGGGTKLEIKRTVAAPSVFIFPPSDEQLKSGTASVVCLLNNFYPREAKVQWKVDNALQSGNSQESVTEQDSKDSTYSLSSTLTLSKADYEKHKVYACEVTHQGLSSPVTKSFNRGEC |  |  |  | 0.018 nM | 7.81e+06 M⁻¹ s⁻¹ | 0.071 µg/mL | 28% | 0.651 | 102% | 12% | 0.036 | no binding | 0.000144 s⁻¹ | 0.047 | 14% | 0.124 | 0.00618 µg/mL | 0.268 | 11% | 

Reference: patent publication US20260116987A1 (Gilead, published 2026)
